Experimental data published in PMC2918618, “Characterization of the TnsD-attTn7 complex that promotes site-specific insertion of Tn7” (Mobile DNA, 2010).

Assays:
Assay in all cases: EMSA; Gel-shift buffer not given (as described in ref. 6); TnsD stored in 500 mM KCl, 50 mM Tris-HCl pH 8.0, 1 mM EDTA, 2 mM DTT, 25% glycerol
[1] = molecular target: T1, TnsD Q340Z (Escherichia coli (transposon Tn7), UniProt P13991 1-339); details: protein: recombinant
T1 sequence: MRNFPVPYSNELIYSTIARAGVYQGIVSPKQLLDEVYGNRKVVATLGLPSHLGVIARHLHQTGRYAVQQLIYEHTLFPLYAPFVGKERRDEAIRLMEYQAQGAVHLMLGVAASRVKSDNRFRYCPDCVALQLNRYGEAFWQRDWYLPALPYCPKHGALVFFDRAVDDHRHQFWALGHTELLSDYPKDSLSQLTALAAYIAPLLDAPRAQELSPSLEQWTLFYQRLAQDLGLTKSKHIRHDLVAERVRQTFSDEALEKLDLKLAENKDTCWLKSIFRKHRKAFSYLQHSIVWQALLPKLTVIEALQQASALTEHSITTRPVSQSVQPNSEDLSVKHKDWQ

[2] = molecular target: T2, TnsD P147L (Escherichia coli (transposon Tn7), UniProt P13991 1-508, P147L); details: protein: recombinant; tags: intein-chitin tag, cleaved with DTT
T2 sequence: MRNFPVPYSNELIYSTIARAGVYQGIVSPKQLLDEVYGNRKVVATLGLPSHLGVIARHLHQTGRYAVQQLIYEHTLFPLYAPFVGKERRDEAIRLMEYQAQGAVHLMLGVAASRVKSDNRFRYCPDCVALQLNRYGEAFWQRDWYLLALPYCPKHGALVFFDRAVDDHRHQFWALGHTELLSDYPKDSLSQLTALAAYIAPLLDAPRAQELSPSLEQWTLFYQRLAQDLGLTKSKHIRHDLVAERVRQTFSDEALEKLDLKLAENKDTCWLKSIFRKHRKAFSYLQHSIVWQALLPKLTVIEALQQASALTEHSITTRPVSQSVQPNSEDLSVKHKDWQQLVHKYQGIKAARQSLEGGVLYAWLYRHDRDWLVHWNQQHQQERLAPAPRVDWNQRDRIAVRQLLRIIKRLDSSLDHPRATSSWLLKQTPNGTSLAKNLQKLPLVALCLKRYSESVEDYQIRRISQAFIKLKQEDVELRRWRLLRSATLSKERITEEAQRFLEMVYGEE

[3] = molecular target: T3, TnsD M96I (Escherichia coli (transposon Tn7), UniProt P13991 1-508, M96I); details: protein: recombinant; tags: intein-chitin tag, cleaved with DTT
T3 sequence: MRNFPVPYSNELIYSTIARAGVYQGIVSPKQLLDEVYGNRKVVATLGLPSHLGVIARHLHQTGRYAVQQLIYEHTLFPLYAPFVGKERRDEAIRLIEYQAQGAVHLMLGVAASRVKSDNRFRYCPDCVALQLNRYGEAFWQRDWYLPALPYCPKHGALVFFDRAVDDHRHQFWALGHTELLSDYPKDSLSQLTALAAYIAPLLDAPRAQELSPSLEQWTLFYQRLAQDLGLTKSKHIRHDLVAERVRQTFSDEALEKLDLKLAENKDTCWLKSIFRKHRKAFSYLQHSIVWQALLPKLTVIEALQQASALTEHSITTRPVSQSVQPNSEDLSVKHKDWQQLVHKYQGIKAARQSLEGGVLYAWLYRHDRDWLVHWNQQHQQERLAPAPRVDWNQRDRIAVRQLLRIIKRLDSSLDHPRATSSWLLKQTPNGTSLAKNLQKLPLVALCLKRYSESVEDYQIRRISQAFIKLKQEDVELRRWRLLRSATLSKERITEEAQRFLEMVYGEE

[4] = molecular target: T4, TnsD C447Y (Escherichia coli (transposon Tn7), UniProt P13991 1-508, C447Y); details: protein: recombinant; tags: intein-chitin tag, cleaved with DTT
T4 sequence: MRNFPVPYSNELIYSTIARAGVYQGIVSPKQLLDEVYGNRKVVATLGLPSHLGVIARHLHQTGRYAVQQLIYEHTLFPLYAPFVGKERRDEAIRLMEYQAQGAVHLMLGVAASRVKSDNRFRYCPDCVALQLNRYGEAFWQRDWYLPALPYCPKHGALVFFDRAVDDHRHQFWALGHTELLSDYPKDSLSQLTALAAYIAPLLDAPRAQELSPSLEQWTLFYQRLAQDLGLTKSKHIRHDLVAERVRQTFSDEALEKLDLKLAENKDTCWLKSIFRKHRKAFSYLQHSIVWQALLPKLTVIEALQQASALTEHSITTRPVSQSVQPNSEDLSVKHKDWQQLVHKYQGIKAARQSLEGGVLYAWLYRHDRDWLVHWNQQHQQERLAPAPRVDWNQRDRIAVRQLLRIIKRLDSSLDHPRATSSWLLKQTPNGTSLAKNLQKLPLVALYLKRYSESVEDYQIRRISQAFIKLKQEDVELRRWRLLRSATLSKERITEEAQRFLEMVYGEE

[5] = molecular target: T5, TnsD W371Z (Escherichia coli (transposon Tn7), UniProt P13991 1-370); details: protein: recombinant
T5 sequence: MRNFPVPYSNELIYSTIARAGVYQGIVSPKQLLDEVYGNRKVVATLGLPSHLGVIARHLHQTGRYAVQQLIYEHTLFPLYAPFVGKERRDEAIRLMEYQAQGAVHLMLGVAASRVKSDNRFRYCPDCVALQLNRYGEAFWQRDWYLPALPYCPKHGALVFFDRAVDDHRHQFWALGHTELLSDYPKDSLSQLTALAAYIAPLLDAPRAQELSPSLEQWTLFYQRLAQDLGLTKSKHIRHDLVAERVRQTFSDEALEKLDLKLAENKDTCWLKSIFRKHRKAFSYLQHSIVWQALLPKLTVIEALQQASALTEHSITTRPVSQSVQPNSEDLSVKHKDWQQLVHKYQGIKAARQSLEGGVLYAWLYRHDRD

B1: attTn7 wt (+23 to +58) (dsDNA)
DNA 1: CCGCGTAACCTGGCAAAATCGGTTACGGTTGAGTAA
DNA 2: TTACTCAACCGTAACCGATTTTGCCAGGTTACGCGG
For B1, the binding signal [1] was < 0.05 relative to wt, the binding signal [2] was 0.07 relative to wt and the binding signal [3] was 0.3 relative to wt. For the same binder, the binding signal [4] was 0.7 relative to wt and the binding signal [5] was < 0.05 relative to wt.
